Test: soluble on expression in E. coli; label from the status in PepcDB or PDB records

Sequence | soluble on expression in E. coli
MHHHHHHSSGVDLGTENLYFQSMSFAVGMFKGQLTTDQVFPYPSVLNEEQTQFLKELVEPVSRFFEEVNDPAKNDALEMVEETTWQGLKELGAFGLQVPSELGGVGLCNTQYARLVEIVGMHDLGVGITLGAHQSIGFKGILLFGTKAQKEKYLPKLASGETVAAFCLTEPSSGSDAASIRTSAVPSPCGKYYTLNGSKLWISNGGLADIFTVFAKTPVTDPATGAVKEKITAFVVERGFGGITHGPPEKKMGIKASNTAEVFFDGVRVPSENVLGEVGSGFKVAMHILNNGRFGMAAALAGTMRGIIAKAVDHATNRTQFGEKIHNFGLIQEKLARMVMLQYVTESMAYMVSANMDQGATDFQIEAAISKIFGSEAAWKVTDECIQIMGGMGFMKEPGVERVLRDLRIFRIFEGTNDILRLFVALQGCMDKGKELSGLGSALKNPFGNAGLLLGEAGKQLRRRAGLGSGLSLSGLVHPELSRSGELAVRALEQFATVVEAKLIKHKKGIVNEQFLLQRLADGAIDLYAMVVVLSRASRSLSEGHPTAQHEKMLCDTWCIEAAARIREGMAALQSDPWQQELYRNFKSISKALVERGGVVTSNPLGF | soluble
MHDRASQMVIFYALAKAGSFTAAAKQMGVSTSHVSKQLGALEETLNLKLVHRTTRSLILTDAGQQFFLYCETIYNAMTEASAIMDDERDEVAGILRLGLSQSFGTMHIIPAIDKLRNQYPDLQVEVRLFDHQADMLKDGLDLWVTNFEDLPEGYVAQRLADSNFVLAASPDYLIDKKVPHHPLDLVEHNCLTYQSRYRDYSNWDFSKGNESLCVKVSGNYRVDLAEAVRDATISGWGIAYLASYLLTNEFNDGKLIQLLPGWKASQKMPIYAVYPSRKHLPRKISAVIDFLREHIGQPPYWDKALMKRVKL | soluble
ISVLDLTPVSTGQQPGEALRHTLELAEVADSYQYTRFWIAEHHNSGAFVSAATEILIALAAARTGRIRVGSGGVMLPNHSPLKVAENFMSLEALFPGRIDLGLGRAPGTDGRTALALRRSREALAADDFPTQIALLRAFAGETPWPAGSVFDGVLAEPRGVKLPPLWILGSSLYGAQLAGELGVGYAFAYHFSQEDPAVAVQTYHRHFRPGPLAEPYAILGVNALAAPTEDEARDLSLTSAALSLGILSGQRGVLRSPEEARQWLQEMDTDPAKLLKKARIGTPEQVWASLQELGESTGAQEMLVTTYAHDPLKRQQSYRLLAQ | not soluble
STDISTVASPLFEGTEGCFLLYDASTNAEIAQFNKAKCATQMAPDSTFKIALSLMAFDAEIIDQKTIFKWDKTPKGMEIWNSNHTPKTWMQFSVVWVSQEITQKIGLNKIKNYLKDFDYGNQDFSGDKERNNGLTEAWLESSLKISPEEQIQFLRKIINHNLPVKNSAIENTIENMYLQDLDNSTKLYGKTGAGFTANRTLQNGWFEGFIISKSGHKYVFVSALTGNLGSNLTSSIKAKKNAITILNTLNL | soluble
MGSDKIHHHHHHMKLDLVRFFQACNPSKTLVVSKPEDRQYYIDFSKVRGAKIIEELGRTITRLSPEQPTCQLFTGHIGCGKSTELLRLKAELEQQGFHVVYFESSQSLDMADIDVTDILLAVAREVSQSLEAIKINLKPGYFKNLFTEISEFLQTPLDIGVEAELSVGIAKITAKTKDSPKLRGQLRQYLEPRTNGILESINKELLKPAREKLKQEGKKGLVVIIDNLDRVDNSLKPSGYYQPEYLFVERGEQLNQLNCHVVYTIPLVLIFSNALGRLINRFGIDPKVLPMVPVQVQDGSQFLQGITLLQQMVMARAFPGVSWEQSRHLITEVFDSLDTLERLCRVSGGHLRNLLMLLFRCLQQEDPPLSRECVDRVIKQRRNELTLAITPDEWELLHEVAQEKNLRGHERYDLLLRSMFVFEYRDEDGSWFDINPILAEAKEFRL | not soluble
MFLKAGESKTVTIDLDERAFAYWSEKYNDWHVEAGEYAIEVGVSSRDIADTVAVALDGDGKTQPLTEWSTYGEWEADPFGAKIVAAVAAAGEAGELTKLPDNAMMRMFLNPMPINSLPTLLGEGGKKIAQFMVDEYAKLAK | not soluble
MSLQPAPFLILDDDDVFAQTLARALTRRGFAPQIAHTGGEALSLARQTPFAYVTVDLHLAASDRGLMPHGGTDSGLHWIAPLRQALPEARMLVLTGYASIATAVQAVKLGADEYLAKPANVDSILLALQVGVSEAVAEQTMENPAPLSVARLEWEHIQRVLSEHGGNISATARALNMHRRTLQRKLGKRPVAEGHHHHHH | soluble
MPPVVPCHCTQCRKWSGHFWAATSVAMADFRLVRDEGLRWFRASDTASRGFCALCGSSLSWKPDGRDRMSFSPGAVDGPTGLATGHHIFMDEAGDYCRVSDGTPHYPGDDEA | not soluble
MKLLALVALCAVGVASHRDKRQLSIGTISVSGAGGSTGCVVTGNVLYANGIRLRNLTSSEQSELATYQTEVEQYKTQLRNILSQRRENLRNRLMSQGRNQQQQSNDVSSQGGNDDGSIPKAPEKPSFCTAEDTTQYYFDGCMVQGNKVYVGGQYARDLSSDEISELQTFDTQQTAYQNAVQSQMQSQVQGLFGGSDFLSALFGGDRFNQQQQRQQPSSTTPASTSSTTLPPKPTVPQFCTAIF | not soluble
MSLNVIMAGIDYTLAPIDIREKFSFTKSTLQAVYNDLLKNENIFGAVIVSTCNRTELYLSCEEGLYINPFELLCDAANFDYEEYSNMHVLRTGVDVIRHLCELACGVKSQIWGEDQIITQVRNAIELAREMNASDSTLEVMFRIAVTSAKKVKTTLKLSSTERSIAYSALKIIKSKENISKALVIGNGEIGRLMASILIENGYDTTITLRRYRHGDNIIPLGAKTIEYVARYEKLKDCDVVISATLSPHYTLEIDKIDRIKYPRLFIDLAVPRDIDPKIKSLDNVELYDLDSIYAGEVDKNRTEQMIQVKKIIDKYIFDYYRWYEYRKRLVLTEGHHHHHH | soluble
MGSDKIHHHHHHMNSSQVLDVKRVLAVLEEQVFQSTGRYLTEVEKVLIKGVWDSKDYKEMASDSGYNAYYLQQKVAPPLWSMLSVIIGDGVKVTKISLKSILLKLAKSDYRKEEASRLDNDSFVGNIRIHGELPKIKSFYGRKDEINYFKKQITLFKERCIVFTGVGGIGKTLLASRLVEEITFDSLSSIYECIIWKTINHSLSIDELVIDLNKIFQVDIEASENSFIDSISLLSKQLHLHRCLLVIDGFEKLLLADDFGKRLQYEKFLLKLTEGKHESCIIITSQLPLKEFASVTTKLPIRSFKLEGLDVNAGMQILQEKGLTGQECKRLIENYSGNPSSLEALADRINRFFEGSVKTFFRYQTTMIDPQLETMLHQQFGQIGLLSNLQRQIMIYLAEEMSENSTPIQFSKLIDNLKERVDFKLSVFELITAIEVLEQRSLIEIAGKSNKREASYSLQVSIKKYILVDPLGLVHKIPDTIQTREVTLWATA | not soluble
MGSDKIHHHHHHMTWGFKNRLNTILPDGRAVMLAIDHGYFLGPIHGLEQPLETVKNLLPYTDSLFLTRGVLSSCIPENCSTPMVIRVSGGATVVGKDLANETIVTPVKEAVKQNAIGVGVSVFVGSDYETQTVTNLANVVSEAHDYCLPVLGITAVAKELQKREARFLALASRVCVEMGADIIKTYYCEGFEKITSTCPAPVVIAGGPKLDSIEDALNITYNALQEGAIGVDMGRNIWQSEHPAAMIQAIHGIVKNGLNVKEALQLYEDVKN | not soluble
MGSDKIHHHHHHMDRFDLGIVKVHRIEEWRGTFSPPAELFDGFSPDGWEPHAEEFAPEYYDPVSGKLFAFLQSWVLDTGTQRILFDTGAGNDKDRPNLPIFGNLQTGFLDNLAAAGFQPEDIDVVVCSHIHVDHVGWNTRLVDGRWEPTFRNARYVLPLADRAYWDPQDASAGPAGIGAAVNAGMFDDSVRPIIEAGRAEWAEDGFEVAEGLVLRSCPGHTPGSMMLEVSGGEDTAMFVGDVVHHPAQIYRPEWNSIFCEAPEDARETRRRVLDLAASREALLIPAHFGGSHMARVLRDGSGFRPVLDPMGSG | not soluble
MGSSHHHHHHSSGENLYFQGHMSVSAFNRRWAAVILEALTRHGVRHICIAPGSRSTPLTLAAAENSAFIHHTHFDERGLGHLALGLAKVSKQPVAVIVTSGTAVANLYPALIEAGLTGEKLILLTADRPPELIDCGANQAIRQPGMFASHPTHSISLPRPTQDIPARWLVSTIDHALGTLHAGGVHINCPFAEPLYGEMDDTGLSWQQRLGDWWQDDKPWLREAPRLESEKQRDWFFWRQKRGVVVAGRMSAEEGKKVALWAQTLGWPLIGDVLSQTGQPLPCADLWLGNAKATSELQQAQIVVQLGSSLTGKRLLQWQASCEPEEYWIVDDIEGRLDPAHHRGRRLIANIADWLELHPAEKRQPWCVEIPRLAEQAMQAVIARRDAFGEAQLAHRICDYLPEQGQLFVGNSLVVRLIDALSQLPAGYPVYSNRGASGIDGLLSTAAGVQRASGKPTLAIVGDLSALYDLNALALLRQVSAPLVLIVVNNNGGQIFSLLPTPQSERERFYLMPQNVHFEHAAAMFELKYHRPQNWQELETAFADAWRTPTTTVIEMVVNDTDGAQTLQQLLAQVSHL | soluble
MENEQQQAQTAPSCRAGCGFFGASATEGYCSQCFKNTLKRQQDTVRLTSPVVSPSSMAATSSALKSEPSSVDMCMKAAVSVSDETAKMDCEDIINVCDQINDDSVTVAESTAPTTITVDVPVPVKKANRCHMCKKRVGLTGFSCRCGGLYCGDHRYDQAHNCQFDYKTMERETIRKNNPVVVSDKVQRI | soluble
MNTRTWFVLLCLALPLVSLQAQPHPQTEQTSPALSEHTEMDHTEMNHTEMDHTEMDHTEMDHTEMDHTQMDHTQMDHTQMDHAIHGATTQFAGDGSLPPPSAAALAAAFPPLRHRAAHAPPLVSLVRIDRLETWNADPGRGHAWATQAWIGSDIQRLWLRSQGECYGGRCQSVAVEMLYGHDISPWWDALIGARRDVQPDGRTWAALGVQGVAPYKFESAAFLYLSGAAMRLMVETKYDLLLSQRLILQPSLQATAGLTRDRDLGAGPQTLQVGIRMRYQITRRVAPYVGWEREYGYGESGRQARARGTSDHEKRWVAGIRCWFLEHHHHHH | soluble
MSMAMSQSNRELVVDFLSYKLSQKGYSWSQFSDVEENRTEAPEGTESEMETPSAINGNPSWHLADSPAVNGATGHSSSLDAREVIPMAAVKQALREAGDEFELRYRRAFSDLTSQLHITPGTAYQSFEQVVNELFRDGVNWGRIVAFFSFGGALCVESVDKEMQVLVSRIAAWMATYLNDHLEPWIQENGGWDTFVELYGNNAAAESRKGQERLEHHHHHH | soluble
MGSDKIHHHHHHMLRAGWFFEGIQDNDLLKLKEACKAFNLDGVLLSSLVLSRLYGVCYVLLGTVDGGDLDQPFDLNKLGIGRLEFFTVLKKKYIEADTSKYLSPKEAGGLLKQPEFYKLKLDGKSTQRIHHTRLYKFGHADVVNEEPVSVLQEVYEDLLDHAAVKKASASLVHESKIDVIRTPNLVDKIKEDMKSVAERFLSVGLLKGLNGMIVLDKEEEYDSKSYSFGGLPDLMREFSIQAAGAADMPYTILFGQSPAGMNATGEHDTRNYYDSIATKQTWSLKPFMMKLLRVIVQTTFGRQIPSLDVVFNPLWQLDAKVRSEVEKANAERDSKYLEMGIITEPQIAKQLVIDGVYSVIDEAHIKELETMVKLNDNDNSDPETTPPAGEET | not soluble
MGSDKIHHHHHHMRIGVAGVGKLGEFHTNLLKQIAAEASDVEFSGVFDLNPERLQEIGKKYGVACFSTLEELAASCDAAVIATTTSSHYAIARQLLEARLHLFIEKPITATLEEADKLIRIEQEKGLTIQVGHIERFNPALLAVEPYIGEPMYIQAERLSGFSRRVTDVSVVLDLMIHDIDLVLSLIKSDIRSIAASGVKVFSNELDMATARIEFENGAIANVTASRLSRSKLRKMRFFTRNPKSYASLDFTSGKSEVFRLVPPDQLSSKNPIKNFATKKILEQFGEIQESLKEMALDYVSPDVPKINALKEELEQFIDAIRKGKPAKVTSEEGRRALMVAGKITDEIRNNTADLD | not soluble

Reference: the DeepSol protein solubility set
